First the molecules themselves.
B1: IgG with feline IgG1a Fc variant S252M, Q311V (antibody)
heavy: DVQLVESGGDLVKPGGSLRLTCVASGLSLTSDSMSWVRQAPGKGLQWVSTLWSNRGTYYTDSVKGRFTISKDNAENTLYLQMNNLKTEDTATYYCASIYYYEADYLHWYFDFWGQGALVTVSSASTTAPSVFPLAPSCGTTSGATVALACLVLGYFPEPVTVSWNSGALTSGVHTFPAVLQASGLYSLSSMVTVPSSRWLSDTFTCNVAHPPSNTKVDKTVRKTDHPPGPKPCDCPKCPPPEAAGGPSIFIFPPKPKDTLMISRTPEVTCLVVDLGPDDSDVQITWFVDNTQVYTAKTSPREEQFNSTYRVVSVLPILHVDWLKGKEFKCKVNSKSLPSPIERTISKAKGQPHEPQVYVLPPAQEELSRNKVSVTCLIKSFHPPDIAVEWEITGQPEPENNYRTTPPQLDSDGTYFVYSKLSVDRSHWQRGNTYTCSVSHEALHSHHTQKSLTQSPG
light: EIQMTQSPTSLSASVGDRVTITCRASEGIANNLSWYQQTPGKAPKLLIYATSNLHSGVPSRFSGSGSGTDFTLTISSLQPEDFATYYCQQGFKWPLTFGGGTKLEITRSDAQPSVFLFQPSLDELHTGSASIVCILNDFYPKEVNVKWKVDGVVQNKGIQESTTEQNSKDSTYSLSSTLTMSSTEYQSHEKFSCEVTHKSLASTLVKSFNRSECQRE
notes: IgG1a constant domain with MALA mutations (M234A, L244A as printed); variable domains from WO 2023/97275
B2: IgG with feline IgG1a Fc variant S252M, R392D (antibody)
heavy: B1 heavy with V320Q, R403D
light: B1 light
notes: as for B1
B3: IgG with feline IgG1a Fc variant S428L (antibody)
heavy: B1 heavy with M261S, V320Q, S439L
light: B1 light
notes: as for B1
B4: IgG with feline IgG1a Fc variant S252Y, R301L (antibody)
heavy: B1 heavy with M261Y, R310L, V320Q
light: B1 light
notes: as for B1
B5: IgG with feline IgG1a Fc variant S252Y, R301Y (antibody)
heavy: B1 heavy with M261Y, R310Y, V320Q
light: B1 light
notes: as for B1
B6: IgG with feline IgG1a Fc variant S252M, R392E (antibody)
heavy: B1 heavy with V320Q, R403E
light: B1 light
notes: as for B1
B7: IgG with feline IgG1a Fc variant S252M, R301L (antibody)
heavy: B1 heavy with R310L, V320Q
light: B1 light
notes: as for B1
B8: IgG with feline IgG1a Fc variant S252Y (antibody)
heavy: B1 heavy with M261Y, V320Q
light: B1 light
notes: as for B1
B9: IgG with feline IgG1a Fc variant S252Y, R392E (antibody)
heavy: B1 heavy with M261Y, V320Q, R403E
light: B1 light
notes: as for B1
B10: IgG with feline IgG1a Fc variant S252Y, T286E (antibody)
heavy: B1 heavy with M261Y, T295E, V320Q
light: B1 light
notes: as for B1
B11: IgG with feline IgG1a Fc variant S252M, T286E (antibody)
heavy: B1 heavy with T295E, V320Q
light: B1 light
notes: as for B1
B12: IgG with feline IgG1a Fc variant S252Y, L309D (antibody)
heavy: B1 heavy with M261Y, L318D, V320Q
light: B1 light
notes: as for B1
B13: IgG with feline IgG1a Fc variant S252Y, T286D (antibody)
heavy: B1 heavy with M261Y, T295D, V320Q
light: B1 light
notes: as for B1
B14: IgG with feline IgG1a Fc variant S252M, R301Y (antibody)
heavy: B1 heavy with R310Y, V320Q
light: B1 light
notes: as for B1
B15: IgG with feline IgG1a Fc variant S252Y, L309V (antibody)
heavy: B1 heavy with M261Y, L318V, V320Q
light: B1 light
notes: as for B1
B16: IgG with feline IgG1a Fc variant S252M, R301V (antibody)
heavy: B1 heavy with R310V, V320Q
light: B1 light
notes: as for B1
B17: IgG with feline IgG1a Fc variant S252Y, R392D (antibody)
heavy: B1 heavy with M261Y, V320Q, R403D
light: B1 light
notes: as for B1
B18: IgG with feline IgG1a Fc variant S252Y, I377Y (antibody)
heavy: B1 heavy with M261Y, V320Q, I386Y
light: B1 light
notes: Printed '1377Y' read as I377Y; IgG1a constant domain with MALA mutations (M234A, L244A as printed); variable domains from WO 2023/97275; also called S252Y, 1377Y
B19: IgG with feline IgG1a Fc variant S252M, T286D (antibody)
heavy: B1 heavy with T295D, V320Q
light: B1 light
notes: as for B1
B20: IgG with feline IgG1a Fc variant S428L, I377L (antibody)
heavy: B1 heavy with M261S, V320Q, I386L, S439L
light: B1 light
notes: Printed '1377L' read as I377L; IgG1a constant domain with MALA mutations (M234A, L244A as printed); variable domains from WO 2023/97275; also called S428L, 1377L
B21: IgG with feline IgG1a Fc variant S252Y, I377L (antibody)
heavy: B1 heavy with M261Y, V320Q, I386L
light: B1 light
notes: Printed '1377L' read as I377L; IgG1a constant domain with MALA mutations (M234A, L244A as printed); variable domains from WO 2023/97275; also called S252Y, 1377L
B22: IgG with feline IgG1a Fc variant S252Y, R301V (antibody)
heavy: B1 heavy with M261Y, R310V, V320Q
light: B1 light
notes: as for B1

Drawing on patent US20240209062A1 (INVETX, published 2024), this text covers Kd, koff and kon for 22 molecules.

Numbering of substitutions follows the chain as printed. Names and notes keep the numbering of the source.

The assay deals with T1, feline FcRn (soluble portion of large subunit p51 isoform X1 with C-terminal 6xHis-tag, co-expressed with … (feline, UniProt Q5MGS7 21-118)).
T1 construct: Heterodimer made by co-expression in CHO cells, purified on HisTrap FF; also called FcRn complex
T1 sequence (chain, as listed by the source limits assumed, chain 1 of 2): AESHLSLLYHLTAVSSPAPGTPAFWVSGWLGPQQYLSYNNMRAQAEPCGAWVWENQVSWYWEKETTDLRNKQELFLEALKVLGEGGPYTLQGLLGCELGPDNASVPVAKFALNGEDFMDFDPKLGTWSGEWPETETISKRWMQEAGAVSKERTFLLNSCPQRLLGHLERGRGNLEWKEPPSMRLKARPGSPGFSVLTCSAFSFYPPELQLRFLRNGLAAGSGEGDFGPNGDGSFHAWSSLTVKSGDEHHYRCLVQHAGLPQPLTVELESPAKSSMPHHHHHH
T1 sequence (Q5MGS7 other isoform, or with tags, fused parts or gaps limits assumed, chain 2 of 2): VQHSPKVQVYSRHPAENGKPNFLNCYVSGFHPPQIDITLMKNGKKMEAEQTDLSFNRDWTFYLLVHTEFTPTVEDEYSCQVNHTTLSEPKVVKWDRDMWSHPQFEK
Nature of the assay: SPR, Biacore T200, IgG captured on Protein L chip, feline FcRn flowed over, pH 5.9, 1:1 fit. How it is done:
The feline FcRn binding experiments at pH 5.9 were completed on a BIACORE™ T200 instrument. A Series S Protein L Sensor chip (Cytiva, Cat. No. BR29205137) was used to capture the antibody variants via the kappa (κ) light chain. The feline variants were captured onto the protein L chip at a flow rate of 10 μL/min for 60 seconds. 1×PBX-P+(Cytiva Cat 28995084) was adjusted to pH 5.9 for the running buffer. The feline FcRn was flowed over the sensor chip at 30 μL/min for 120 seconds contact time and 600 seconds dissociation time. Regeneration of the flow cells was completed by flowing over 10 mM glycine, pH 1.7 at 30 μL/min for 30 seconds. The data were evaluated by the BIACORE™T200 Evaluation software v3.2.1 by fitting to a 1:1 kinetic interaction model.
Background: Surface plasmon resonance follows binding to a sensor surface in real time, without labels.
Usually Kd stands for the concentration at which binding is half-saturated. High values mean weaker binding, low ones tighter binding. Broadly, the koff is the rate constant with which the complex falls apart. Low values mean slow dissociation, high ones fast dissociation. By kon is commonly meant the second-order rate constant of association. The low end stands for slower complex formation, the high end for faster complex formation. For the molecule B1, the Kd turned out to be 152 nM, the koff worked out at 0.121 s⁻¹ and the kon is 865000 M⁻¹ s⁻¹.

Regarding B2, the Kd was determined as 268 nM, the koff was found to be 0.229 s⁻¹ and the kon stood at 856000 M⁻¹ s⁻¹.

In turn, B3 yielded a Kd of 64 nM, a dissociation rate constant (koff) of 0.0619 s⁻¹ and a kon of 968000 M⁻¹ s⁻¹.

On to B4, for which binding was characterised by a dissociation constant (Kd) of 38.8 nM, the koff was determined as 0.0277 s⁻¹ and the kon worked out at 714000 M⁻¹ s⁻¹.

Turning to B5, the Kd was 37.6 nM, the koff came to 0.0262 s⁻¹ and the kon is 696000 M⁻¹ s⁻¹.

Turning to B6, the affinity, expressed as Kd, was 186 nM; the off-rate constant (koff) turned out to be 0.177 s⁻¹; the kon worked out at 965000 M⁻¹ s⁻¹.

Molecule B7 gave a Kd of 280 nM, a koff of 0.332 s⁻¹ and a kon of 1.2e+06 M⁻¹ s⁻¹.

B8 had a Kd of 36.1 nM, a koff of 0.0268 s⁻¹ and a kon of 742000 M⁻¹ s⁻¹.

B9 came in with a Kd of 24.1 nM, a koff of 0.0287 s⁻¹ and a kon of 1.19e+06 M⁻¹ s⁻¹.

Molecule B10 displayed an equilibrium dissociation constant (Kd) of 12.1 nM, a koff of 0.00783 s⁻¹ and a kon of 650000 M⁻¹ s⁻¹.

For B11, the Kd came to 101 nM, the koff came out at 0.0719 s⁻¹ and the kon amounted to 715000 M⁻¹ s⁻¹.

As for B12, the Kd amounted to 56.7 nM, the koff is 0.0284 s⁻¹ and the association rate constant (kon) was 502000 M⁻¹ s⁻¹.

The molecule B13 gave a Kd of 15.2 nM, a koff of 0.00955 s⁻¹ and a kon of 631000 M⁻¹ s⁻¹.

In turn, B14 yielded a Kd of 258 nM, a koff of 0.18 s⁻¹ and a kon of 695000 M⁻¹ s⁻¹.

For B15, the affinity, expressed as Kd, was 18.7 nM; the off-rate (koff) came out at 0.0139 s⁻¹; the on-rate constant (kon) was found to be 747000 M⁻¹ s⁻¹.

Take B16: the Kd came to 278 nM, the koff was determined as 0.206 s⁻¹ and the on-rate (kon) is 745000 M⁻¹ s⁻¹.

Molecule B17 gave a Kd of 25 nM, a koff of 0.0296 s⁻¹ and a kon of 1.19e+06 M⁻¹ s⁻¹.

On to B18, for which the Kd amounted to 36.1 nM, the koff was 0.0258 s⁻¹ and the kon amounted to 716000 M⁻¹ s⁻¹.

With B19, the Kd came out at 123 nM, the koff was 0.105 s⁻¹ and the kon is 850000 M⁻¹ s⁻¹.

Turning to B20, the affinity, expressed as Kd, was 87.7 nM; the koff came to 0.0723 s⁻¹; the kon stood at 819000 M⁻¹ s⁻¹.

With B21, binding was put at a Kd of 31.5 nM, the koff was 0.0224 s⁻¹ and the kon stood at 712000 M⁻¹ s⁻¹.

For B22, the Kd worked out at 38.7 nM, the dissociation rate constant (koff) worked out at 0.028 s⁻¹ and the kon worked out at 724000 M⁻¹ s⁻¹.
